Results reported in patent US20040209310A1 (published 2004).

Molecular target: T1, myc-tagged Mindin (pcDNA-His/myc-Mindin) (human, UniProt Q9BUD6 27-331)
T1 construct: mature; not shown: His/myc tag of vector pcDNA4-His/myc A
T1 sequence (looked up): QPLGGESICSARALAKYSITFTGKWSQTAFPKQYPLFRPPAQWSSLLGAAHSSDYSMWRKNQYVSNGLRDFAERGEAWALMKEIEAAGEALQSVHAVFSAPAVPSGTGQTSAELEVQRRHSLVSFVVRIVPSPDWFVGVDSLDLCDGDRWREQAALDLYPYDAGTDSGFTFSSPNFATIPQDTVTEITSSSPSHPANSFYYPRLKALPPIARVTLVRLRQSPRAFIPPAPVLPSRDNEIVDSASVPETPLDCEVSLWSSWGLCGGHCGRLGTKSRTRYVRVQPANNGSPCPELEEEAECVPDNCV
Experiment: pulldown of myc-tagged Mindin with immobilized GST-CAPPD
Procedure: Affinity chromatography on immobilized GST- or Ig-fusion proteins. These studies were performed essentially as described (Ichtchenko et al., 1995, Cell 81:435-443; Hata et al., Nature 366:347-351). Brain membrane extract was precleared by incubation (2 h at 4° C.) with glutathione agarose and incubated overnight at 4° C. with immobilized GST-CAPPD on glutathione agarose beads preequilibrated with buffer B. Beads were washed with buffer B and serially eluted with 2 ml of buffer B containing 0.3 M NaCl, 0.5 M NaCl, 1.0 M NaCl, or 1.0 M NaCl, 10 mM EGTA, and 5 mM EDTA (instead of 2 mM CaCl2). Eluted proteins were analyzed by SDS-PAGE and Coomassie blue staining. Bound proteins were identified by liquid chromatography/mass spectroscopy of tryptic fragments. For pulldown assays, the medium from COS cells transfected with pcDNA4-His/myc-F spondin or pcDNA-His/myc-Mindin (collected 48-72 h post transfection) was adjusted to (final concentrations) 10 mM HEPES-NaOH pH 7.4, 1 mM EGTA, 1% Triton X-100, proteinase inhibitors were added, and the supernatant was precleared with immobilized GST orIg-C. The treated medium was then incubated overnight at 4° C. with GST or GST-CAPPD immobilized on glutathione agarose or with various Ig-APP fusion proteins immobilized on protein-A Sepharose. […]

binding result: no binding
B1: GST-CAPPD fusion protein (pGEX-CAPPD, APP695 residues 286-557) (other, human, UniProt P05067-4 286-557, looked up)
chain: VVRVPTTAASTPDAVDKYLETPGDENEHAHFQKAKERLEAKHRERMSQVMREWEEAERQAKNLPKADKKAVIQHFQEKVESLEQEAANERQQLVETHMARVEAMLNDRRRLALENYITALQAVPPRPRHVFNMLKKYVRAEQKDRQHTLKHFEHVRMVDPKKAAQIRSQVMTHLRVIYERMNQSLSLLYNVPAVAEEIQDEVDELLQKEQNYSDDVLANMISEPRISYGNDALMPSLTETKTTVELLPVNGEFSLDDLQPWHSFGADSVPAN
notes: range 286-557; Expressed in bacteria and immobilized on glutathione agarose/Sepharose; also called CAPPD-GST fusion protein; central APP domain; not shown: glutathione S-transferase of vector pGEX-KG
